Each block holds one binder with its values, some of them ahead of it. Starred links: 1 amine or outer side, 2 acyl side, 3 side chain; linkers in the order of their positions; H or OH if unused. Non-standard residues stand in square brackets, D forms with d. Primed or numbered codes have the meaning given here. No end group written: not given here. Trimesoyl = O=C(c1cc(C(=O)[*:2])cc(C(=O)[*:3])c1)[*:1]; Phe(3,4-F2) = N[C@@H](Cc1ccc(F)c(F)c1)C(=O)O; Phe(4-Br) = N[C@@H](Cc1ccc(Br)cc1)C(=O)O; Phe(4-Cl) = N[C@@H](Cc1ccc(Cl)cc1)C(=O)O; Phe(4-F) = N[C@@H](Cc1ccc(F)cc1)C(=O)O; dPhe(4-F) = N[C@H](Cc1ccc(F)cc1)C(=O)O; 2Nal = N[C@@H](Cc1ccc2ccccc2c1)C(=O)O; Pip′ = L-homoproline (pipecolyl); Dap = NC[C@H](N)C(=O)O; Sar = CNCC(=O)O
Legend:
[1] = molecular target: Pin1 (Example 6, construct not stated) (human) (UniProt Q13526); test: fluorescence anisotropy
[2] = molecular target: Pin1 (Example 6, construct not stated) (human) (UniProt Q13526); test: cell-based or functional assay
[3] = molecular target: bovine serum albumin (bovine) (UniProt P02769); test: binding test against a panel of arbitrarily selected proteins
[4] = molecular target: Pin1 (Example 6, construct not stated) (human) (UniProt Q13526); test: FA competition; competitor probe FITC-labeled peptide 1 (100 nM), Pin1 400 nM

Sequence of bovine serum albumin (bovine) (P02769 25-607 limits assumed): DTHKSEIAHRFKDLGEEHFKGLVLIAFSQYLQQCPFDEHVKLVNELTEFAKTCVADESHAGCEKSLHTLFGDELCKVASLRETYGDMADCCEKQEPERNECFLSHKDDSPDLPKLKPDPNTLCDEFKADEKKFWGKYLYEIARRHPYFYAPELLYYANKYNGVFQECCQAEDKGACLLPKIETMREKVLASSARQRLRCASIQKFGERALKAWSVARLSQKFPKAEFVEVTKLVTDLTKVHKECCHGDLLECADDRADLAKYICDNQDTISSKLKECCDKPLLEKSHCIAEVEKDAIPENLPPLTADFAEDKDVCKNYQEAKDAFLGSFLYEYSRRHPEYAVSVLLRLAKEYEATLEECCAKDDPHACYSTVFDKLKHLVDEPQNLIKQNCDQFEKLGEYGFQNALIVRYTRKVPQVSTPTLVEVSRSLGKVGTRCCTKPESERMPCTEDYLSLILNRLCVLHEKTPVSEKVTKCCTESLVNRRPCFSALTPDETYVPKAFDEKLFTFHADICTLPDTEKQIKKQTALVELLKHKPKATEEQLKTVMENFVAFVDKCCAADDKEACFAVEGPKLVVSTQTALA

B5: peptide 23 (Table 18) (peptide)
peptide: Trimesoyl-P[Sar][dD][Pip′][2Nal]RR[dV][Dap]F[2Nal]RRRR[Dap]K-NH2
modifications: linker (positions not given here) via Trimesoyl; not fully specified (some residues, bridges); printed as bicyclo[Tm-(Pro-Sar-D-Asp-Pip-Nal-Arg-Arg-D-Val)-Dap-(Phe-Nal-Arg-Arg-Arg-Arg-Dap)]-Lys
Kd [1]: 1920 nM

B6: peptide 24 (Table 18) (peptide)
peptide: Trimesoyl-P[Sar][dD][Pip′][2Nal]RR[dR][Dap]F[2Nal]RRRR[Dap]K-NH2
modifications: linker (positions not given here) via Trimesoyl; not fully specified (some residues, bridges); printed as bicyclo[Tm-(Pro-Sar-D-Asp-Pip-Nal-Arg-Arg-D-Arg)-Dap-(Phe-Nal-Arg-Arg-Arg-Arg-Dap)]-Lys
Kd [1]: 1310 nM

B7: peptide 25 (Table 18) (peptide)
peptide: Trimesoyl-P[Sar][dD][Pip′][2Nal]RR[dD][Dap]F[2Nal]RRRR[Dap]K-NH2
modifications: linker (positions not given here) via Trimesoyl; not fully specified (some residues, bridges); printed as bicyclo[Tm-(Pro-Sar-D-Asp-Pip-Nal-Arg-Arg-D-Asp)-Dap-(Phe-Nal-Arg-Arg-Arg-Arg-Dap)]-Lys
Kd [1]: 4600 nM

B11: peptide 20 (Table 18) (peptide)
peptide: Trimesoyl-P[Sar][dD][Pip′][2Nal]RD[dA][Dap]F[2Nal]RRRR[Dap]K-NH2
modifications: linker (positions not given here) via Trimesoyl; not fully specified (some residues, bridges); printed as bicyclo[Tm-(Pro-Sar-D-Asp-Pip-Nal-Arg-Asp-D-Ala)-Dap-(Phe-Nal-Arg-Arg-Arg-Arg-Dap)]-Lys
Kd [1]: 3190 nM

B12: peptide 31 (Table 18) (peptide)
peptide: Trimesoyl-[dF]H[dT][Pip′][2Nal]RA[dF][Dap]F[2Nal]RRRR[Dap]K
modifications: linker (positions not given here) via Trimesoyl; not fully specified (C-terminus, bridges); printed as bicyclo[Tm-(D-Phe-His-D-Thr-Pip-Nal-Arg-Ala-D-Phe)-Dap-(Phe-Nal-Arg-Arg-Arg-Arg-Dap)]-Lys
Kd [1]: 1680 nM

B13: peptide 32 (Table 18) (peptide)
peptide: Trimesoyl-[dF][Phe(4-Br)][dT][Pip′][2Nal]RA[dF][Dap]F[2Nal]RRRR[Dap]K
modifications: linker (positions not given here) via Trimesoyl; not fully specified (C-terminus, bridges); printed as bicyclo[Tm-(D-Phe-4-BrPhe-D-Thr-Pip-Nal-Arg-Ala-D-Phe)-Dap-(Phe-Nal-Arg-Arg-Arg-Arg-Dap)]-Lys
Kd [1]: 1780 nM

Stronger by Kd [1], values ahead:

Kd [1]: 120 nM
IC50 of HeLa cell growth (MTT assay) [2]: 1000 nM
IC50 of Pin1 catalytic activity toward Suc-Ala-Glu-Pro-Phe-pNA [2]: 170 nM
PML protein level in HeLa cells (western blot), 0.2 µM inhibitor [2]: 1.8 fold
PML protein level in HeLa cells (western blot), plateau at ˜1 µM inhibitor [2]: 3.3 fold
Kd [3]: 20000 nM
IC50 [4]: 190 nM
B1: peptide 37 (Table 18) (peptide)
peptide: Trimesoyl-[dPhe(4-F)][Phe(4-F)][dT][Pip′][2Nal]RA[dF][Dap]F[2Nal]RRRR[Dap]K
modifications: linker (positions not given here) via Trimesoyl; not fully specified (bridges); printed as bicyclo[Tm-(D-4-Fpa-Fpa-D-Thr-Pip-Nal-Arg-Ala-D-Phe)-Dap-(Phe-Nal-Arg-Arg-Arg-Arg-Dap)]-Lys

Kd [1]: 780 nM
B2: peptide 30 (Table 18) (peptide)
peptide: Trimesoyl-[dF][Phe(4-Cl)][dT][Pip′][2Nal]RA[dF][Dap]F[2Nal]RRRR[Dap]K
modifications: linker (positions not given here) via Trimesoyl; not fully specified (C-terminus, bridges); printed as bicyclo[Tm-(D-Phe-4-ClPhe-D-Thr-Pip-Nal-Arg-Ala-D-Phe)-Dap-(Phe-Nal-Arg-Arg-Arg-Arg-Dap)]-Lys

Kd [1]: 740 nM
B3: peptide 26 (Table 18) (peptide)
peptide: Trimesoyl-[dF][Phe(4-F)][dT][Pip′][2Nal]RG[dA][Dap]F[2Nal]RRRR[Dap]K-NH2
modifications: linker (positions not given here) via Trimesoyl; not fully specified (some residues, bridges); printed as bicyclo[Tm-(D-Phe-4-Fpa-D-Thr-Pip-Nal-Arg-Gly-D-Ala)-Dap-(Phe-Nal-Arg-Arg-Arg-Arg-Dap)]-Lys

Kd [1]: 570 nM
B4: peptide 21 (Table 18) (peptide)
peptide: Trimesoyl-[dF][Phe(4-F)][dT][Pip′][2Nal]RS[dF][Dap]F[2Nal]RRRR[Dap]K-NH2
modifications: linker (positions not given here) via Trimesoyl; not fully specified (some residues, bridges); printed as bicyclo[Tm-(D-Phe-Fpa-D-Thr-Pip-Nal-Arg-Ser-D-Phe)-Dap-(Phe-Nal-Arg-Arg-Arg-Arg-Dap)]-Lys

Kd [1]: 1070 nM
B8: peptide 34 (Table 18) (peptide)
peptide: Trimesoyl-[dV][Phe(4-F)][dT][Pip′][2Nal]RA[dA][Dap]F[2Nal]RRRR[Dap]K
modifications: linker (positions not given here) via Trimesoyl; not fully specified (C-terminus, bridges); printed as bicyclo[Tm-(D-Val-4-Fpa-D-Thr-Pip-Nal-Arg-Ala-D-Ala)-Dap-(Phe-Nal-Arg-Arg-Arg-Arg-Dap)]-Lys

Kd [1]: 720 nM
B9: peptide 19 (Table 18) (peptide)
peptide: Trimesoyl-P[Sar][dD][Pip′][2Nal]RR[dA][Dap]F[2Nal]RRRR[Dap]K-NH2
modifications: linker (positions not given here) via Trimesoyl; not fully specified (some residues, bridges); printed as bicyclo[Tm-(Pro-Sar-D-Asp-Pip-Nal-Arg-Arg-D-Ala)-Dap-(Phe-Nal-Arg-Arg-Arg-Arg-Dap)]-Lys

Kd [1]: 410 nM
B10: peptide 29 (Table 18) (peptide)
peptide: Trimesoyl-[dF][Phe(3,4-F2)][dT][Pip′][2Nal]RA[dF][Dap]F[2Nal]RRRR[Dap]K
modifications: linker (positions not given here) via Trimesoyl; not fully specified (C-terminus, bridges); printed as bicyclo[Tm-(D-Phe-3,4-diFPhe-D-Thr-Pip-Nal-Arg-Ala-D-Phe)-Dap-(Phe-Nal-Arg-Arg-Arg-Arg-Dap)]-Lys

Kd [1]: 1260 nM
B14: peptide 28 (Table 18) (peptide)
peptide: Trimesoyl-[dF]F[dT][Pip′][2Nal]RA[dF][Dap]F[2Nal]RRRR[Dap]K
modifications: linker (positions not given here) via Trimesoyl; not fully specified (some residues, C-terminus, bridges); printed as bicyclo[Tm-(D-Phe-Phe-D-Thr-Pip-Nal-Arg-Ala-D-Phe)-Dap-(Phe-Nal-Arg-Arg-Arg-Arg-Dap)]-Lys

From US20170355730A1
